In the Immune Epitope Database (IEDB):

What was measured:
Experiment in all cases: IEDB peptide-MHC binding, purified MHC/competitive/radioactivity; filed as Kd, often an IC50 or EC50 that approximates it; ≥ and ≤ were set here for values at or beyond the usual limits of such assays
Settings in all cases: source organism: Homo sapiens
HLA-A*31:01 = biological target: HLA-A*31:01
HLA-A*11:01 = biological target: HLA-A*11:01
HLA-A*33:01 = biological target: HLA-A*33:01
HLA-A*68:01 = biological target: HLA-A*68:01
HLA-A*03:01 = biological target: HLA-A*03:01

Row | Sequence | Kd (HLA-A*31:01) [nM] | Kd (HLA-A*11:01) [nM] | Kd (HLA-A*33:01) [nM] | Kd (HLA-A*68:01) [nM] | Kd (HLA-A*03:01) [nM]
1 | LLGPGRPYR | 11 | 656 | 106 | 1090 | 570
2 | MSLQRQFLR | 8.3 | 8.3 | 14 | 8.5 | 54
